Data on one molecule can be found in publication PMC12121391, “Crystal structure of ATP-dependent DNA ligase from Rhizobium phage vB_RleM_P10VF”.

The target of the data set is T1, P10VF-Lig (ATP-dependent DNA ligase) (Rhizobium phage vB_RleM_P10VF, UniProt A0A076YM08).
T1 sequence: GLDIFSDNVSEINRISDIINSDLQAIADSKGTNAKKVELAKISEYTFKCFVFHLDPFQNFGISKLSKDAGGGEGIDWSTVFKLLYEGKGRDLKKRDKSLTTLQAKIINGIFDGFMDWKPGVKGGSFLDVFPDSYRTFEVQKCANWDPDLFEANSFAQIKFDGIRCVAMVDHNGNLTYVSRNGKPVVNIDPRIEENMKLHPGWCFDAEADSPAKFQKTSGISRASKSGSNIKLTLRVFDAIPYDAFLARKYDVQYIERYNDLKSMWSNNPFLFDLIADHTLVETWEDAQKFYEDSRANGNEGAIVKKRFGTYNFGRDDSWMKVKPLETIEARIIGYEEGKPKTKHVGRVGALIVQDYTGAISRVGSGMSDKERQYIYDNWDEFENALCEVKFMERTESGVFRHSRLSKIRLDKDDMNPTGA
Nature of the data set: X-ray crystallography; AMP transferred to the DNA 5'-phosphate (step 2 intermediate); EDTA 5 mM; 2.2 Å; Crystallization: protein in 50 mM Tris pH 7.5, 200 mM NaCl, 1 mM beta-mercaptoethanol; 1.2 eq nicked duplex, 5 mM EDTA, 30 min on ice; 24% PEG 4000, 100 mM bis-Tris pH 5.5, 4 °C (278 K in Table 2). The settings on record: protein: recombinant, SeMet-substituted, 21 bp, blunt ends.

B1: nicked DNA duplex (21 nt complement, 10 + 11 nt nicked strand) (dsDNA)
DNA 1: TTCCGACAGTGGGGTCGCAAT
DNA 2: ATTGCGACCC
DNA 3: CACTATCGGAA
modifications: 2'-O-methyl one nucleotide upstream of the 3' terminus at the nick (strand 2); 5'-phosphate at the nick (strand 3), adenylated (AMP) in the crystal
Consider B1, for which the binding result is given as “binds”.
